Reference: article PMC4006364 (Nature chemical biology, 2014)
Changes are numbered by the printed parent chain. Where two headings read alike, the source gives them in different places.

Experiments:
AfXPB [1] = biological target: T1, AfXPB (Archaeoglobus fulgidus, UniProt O29889); assay: gel mobility shift, inhibition of […]-G4 DNA binding
T1 sequence (O29889 1-452): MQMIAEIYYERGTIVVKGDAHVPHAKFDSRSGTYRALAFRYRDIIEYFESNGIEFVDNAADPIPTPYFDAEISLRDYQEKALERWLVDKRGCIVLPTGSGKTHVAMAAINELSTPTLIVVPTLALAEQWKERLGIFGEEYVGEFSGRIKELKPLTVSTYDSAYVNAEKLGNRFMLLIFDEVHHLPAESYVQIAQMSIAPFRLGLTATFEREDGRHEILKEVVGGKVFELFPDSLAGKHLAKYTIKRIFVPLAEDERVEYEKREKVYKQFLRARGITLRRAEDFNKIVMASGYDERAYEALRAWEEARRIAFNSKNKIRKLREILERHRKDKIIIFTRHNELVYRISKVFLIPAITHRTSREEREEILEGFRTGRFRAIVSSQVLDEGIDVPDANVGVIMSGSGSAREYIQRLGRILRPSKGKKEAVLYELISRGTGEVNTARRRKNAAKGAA

AfXPB [2] = biological target: T1, AfXPB; assay: as above; settings: no Mg2+, pH 7.9, 50 °C; inhibits G4 DNA binding
SaXPD = SaXPD (Sulfolobus acidocaldarius, UniProt Q4JC68); settings: 1 mM Mg-ATP, pH 6.5, 45 °C
XPB (AfXPB) WT [3] = biological target: T2, XPB (AfXPB) WT (Archaeoglobus fulgidus, UniProt O29889 1-452); assay: EMSA
T2 sequence: T1 sequence (O29889 1-452)

XPD (SaXPD) = biological target: T3, XPD (SaXPD) (Sulfolobus acidocaldarius, UniProt Q4JC68 1-551); assay: EMSA
T3 sequence: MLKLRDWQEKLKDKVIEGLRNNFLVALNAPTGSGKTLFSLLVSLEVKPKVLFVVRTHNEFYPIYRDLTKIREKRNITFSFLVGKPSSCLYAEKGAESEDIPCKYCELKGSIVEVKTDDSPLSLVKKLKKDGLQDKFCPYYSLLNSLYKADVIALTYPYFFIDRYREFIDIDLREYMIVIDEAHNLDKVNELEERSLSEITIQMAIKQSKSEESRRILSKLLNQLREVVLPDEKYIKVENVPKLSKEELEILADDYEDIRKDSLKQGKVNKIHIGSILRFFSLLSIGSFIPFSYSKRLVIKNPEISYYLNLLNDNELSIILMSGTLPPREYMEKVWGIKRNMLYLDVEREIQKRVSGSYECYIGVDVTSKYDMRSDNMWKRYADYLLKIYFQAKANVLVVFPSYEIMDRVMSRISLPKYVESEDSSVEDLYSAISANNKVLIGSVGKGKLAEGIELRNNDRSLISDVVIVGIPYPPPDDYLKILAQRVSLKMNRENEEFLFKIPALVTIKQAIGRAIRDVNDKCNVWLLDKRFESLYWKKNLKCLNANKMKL

AfXPB K101R = biological target: T4, AfXPB K101R (Archaeoglobus fulgidus, UniProt O29889 1-452, K101R); assay: EMSA
T4 sequence: T1 sequence (O29889 1-452) with K101R

XPB (AfXPB) WT [4] = biological target: T2, XPB (AfXPB) WT; assay: EMSA; remark: listed apart in the source

With `Nc1ncnc2c1ncn2[C@@H]1O[C@H](COP(=O)(O)OP(=O)(O)O)[C@@H](O)[C@H]1O` [ADP] the Ki (AfXPB [1]) was about 4 mM.

In the case of `Nc1ncnc2c1ncn2[C@@H]1O[C@H](COP(=O)(O)OP(=O)(O)OP(O)(O)=S)[C@@H](O)[C@H]1O` [ATP-γS], the “inhibition of G4 DNA binding” value (AfXPB [2]) is reported as “ATP-γS similarly inhibited G4 DNA binding, so inhibition did not depend upon ATP hydrolysis”.

`Nc1ncnc2c1ncn2[C@@H]1O[C@H](COP(=O)(O)OP(=O)(O)OP(=O)(O)O)[C@@H](O)[C@H]1O` [ATP] was tested, and the “32P-G4 DNA unwinding assay, native gel” value (SaXPD) was “robust G4 DNA unwinding activity in the presence of ATP but not ATP-γS”.

TGGACCAGACCTAGCAGCTATGGGGGAGCTGGGGAAGGTGGGAATGTGA (structured_DNA) [G4 DNA (TP oligonucleotide)]: binds (XPB (AfXPB) WT [3]); binds (XPD (SaXPD)); no binding (AfXPB K101R).

B1: dsDNA (dsDNA)
DNA 1: AGAATGGAGCAGGTGCGCTGCGAGCAGTG
DNA 2: CACTGCTCGCAGCGCACCTGCTCCATTCT
B1: no binding (XPB (AfXPB) WT [4]).

AGAATGGAGCAGGTGCGCTGCGAGCAGTG (ssDNA) [ssDNA]: no binding (XPB (AfXPB) WT [4]).
